Assay results published in patent US20230322888A1.

Assays:
Test in all cases: cell-based or functional assay
[1] = biological target: cynomolgus monkey GLP1 receptor (cynomolgus monkey) (UniProt F8V479)
[2] = biological target: mouse GLP1 receptor (mouse) (UniProt O35659)
[3] = biological target: human GLP1 receptor (human) (UniProt P43220)
human GLP1 receptor (human), sequence (P43220 24-463): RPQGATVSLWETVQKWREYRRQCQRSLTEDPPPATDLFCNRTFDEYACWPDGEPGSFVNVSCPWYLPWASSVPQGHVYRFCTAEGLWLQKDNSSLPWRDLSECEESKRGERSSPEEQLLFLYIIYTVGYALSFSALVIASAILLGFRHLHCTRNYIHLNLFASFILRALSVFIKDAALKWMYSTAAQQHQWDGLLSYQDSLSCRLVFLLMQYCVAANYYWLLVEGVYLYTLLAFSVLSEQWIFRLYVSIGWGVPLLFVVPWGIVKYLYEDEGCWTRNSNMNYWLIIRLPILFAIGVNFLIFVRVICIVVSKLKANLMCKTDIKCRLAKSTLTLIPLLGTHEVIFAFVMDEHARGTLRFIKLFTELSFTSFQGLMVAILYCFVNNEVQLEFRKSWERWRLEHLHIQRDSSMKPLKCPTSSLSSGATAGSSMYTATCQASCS

Albiglutide, sequence (chain): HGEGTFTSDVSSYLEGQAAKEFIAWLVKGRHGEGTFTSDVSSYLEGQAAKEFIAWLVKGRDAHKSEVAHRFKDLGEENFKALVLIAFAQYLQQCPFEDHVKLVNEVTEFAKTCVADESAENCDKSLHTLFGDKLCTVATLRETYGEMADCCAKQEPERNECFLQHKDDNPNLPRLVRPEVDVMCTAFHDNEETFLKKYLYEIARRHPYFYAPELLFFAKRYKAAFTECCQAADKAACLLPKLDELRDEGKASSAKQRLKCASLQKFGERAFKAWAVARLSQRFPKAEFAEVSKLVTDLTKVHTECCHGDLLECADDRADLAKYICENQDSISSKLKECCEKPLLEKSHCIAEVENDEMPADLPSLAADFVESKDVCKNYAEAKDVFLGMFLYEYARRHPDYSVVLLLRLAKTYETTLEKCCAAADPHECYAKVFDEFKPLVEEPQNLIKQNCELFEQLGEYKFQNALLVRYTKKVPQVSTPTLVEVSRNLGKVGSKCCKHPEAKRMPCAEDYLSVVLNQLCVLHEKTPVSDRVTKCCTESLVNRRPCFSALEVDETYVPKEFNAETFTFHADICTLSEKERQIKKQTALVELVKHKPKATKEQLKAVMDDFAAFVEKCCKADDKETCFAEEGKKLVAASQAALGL
Dulaglutide (Fc fusion), sequence (chain): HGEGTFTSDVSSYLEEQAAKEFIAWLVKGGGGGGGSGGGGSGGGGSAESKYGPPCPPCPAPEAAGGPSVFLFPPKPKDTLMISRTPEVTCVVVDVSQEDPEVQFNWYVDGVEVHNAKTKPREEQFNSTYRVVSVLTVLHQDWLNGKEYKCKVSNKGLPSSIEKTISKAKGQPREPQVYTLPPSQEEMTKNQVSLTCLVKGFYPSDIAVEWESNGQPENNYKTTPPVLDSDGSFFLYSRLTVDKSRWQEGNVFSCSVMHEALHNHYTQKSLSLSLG
mouse GLP1 receptor (mouse), sequence (O35659 22-463): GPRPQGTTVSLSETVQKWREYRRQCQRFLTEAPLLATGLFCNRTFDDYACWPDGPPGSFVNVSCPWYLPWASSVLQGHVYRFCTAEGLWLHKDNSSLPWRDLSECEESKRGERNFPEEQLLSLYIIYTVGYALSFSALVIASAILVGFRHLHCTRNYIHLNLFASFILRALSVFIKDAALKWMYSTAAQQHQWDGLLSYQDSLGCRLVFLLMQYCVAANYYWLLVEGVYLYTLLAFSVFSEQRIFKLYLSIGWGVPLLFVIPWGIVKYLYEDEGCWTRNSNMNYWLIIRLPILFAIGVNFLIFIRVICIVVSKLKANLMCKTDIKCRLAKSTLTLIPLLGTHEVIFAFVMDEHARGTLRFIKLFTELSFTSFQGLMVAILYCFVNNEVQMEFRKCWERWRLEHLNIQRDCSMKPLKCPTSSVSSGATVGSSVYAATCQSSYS
cynomolgus monkey GLP1 receptor (cynomolgus monkey), sequence (F8V479 entry or part of it): as the sequence (P43220 24-463) above, with S112N, F120S, S202G, L205V, L237F, W241R, I249V counted along it

| Substance | cAMP induction CGLP1R EC50 [1] [nM] | cAMP induction mGLP1R EC50 [2] [nM] | cAMP induction hGLP1R EC50 [3] [nM] |
| --- | --- | --- | --- |
| Liraglutide (peptide) | 0.079 | 0.052 |  |
| GLP1 (from UniProt P01275 98-127) (peptide) |  | 0.012 |  |
| Albiglutide | 1.76 | 1.49 | 0.981 |
| Dulaglutide (Fc fusion) | 0.045 | 0.02 | 0.038 |
